T1: RRM1 subunit of ribonucleotide reductase (human (endogenous in RKO), UniProt P23921 1-792)
T1 sequence (looked up): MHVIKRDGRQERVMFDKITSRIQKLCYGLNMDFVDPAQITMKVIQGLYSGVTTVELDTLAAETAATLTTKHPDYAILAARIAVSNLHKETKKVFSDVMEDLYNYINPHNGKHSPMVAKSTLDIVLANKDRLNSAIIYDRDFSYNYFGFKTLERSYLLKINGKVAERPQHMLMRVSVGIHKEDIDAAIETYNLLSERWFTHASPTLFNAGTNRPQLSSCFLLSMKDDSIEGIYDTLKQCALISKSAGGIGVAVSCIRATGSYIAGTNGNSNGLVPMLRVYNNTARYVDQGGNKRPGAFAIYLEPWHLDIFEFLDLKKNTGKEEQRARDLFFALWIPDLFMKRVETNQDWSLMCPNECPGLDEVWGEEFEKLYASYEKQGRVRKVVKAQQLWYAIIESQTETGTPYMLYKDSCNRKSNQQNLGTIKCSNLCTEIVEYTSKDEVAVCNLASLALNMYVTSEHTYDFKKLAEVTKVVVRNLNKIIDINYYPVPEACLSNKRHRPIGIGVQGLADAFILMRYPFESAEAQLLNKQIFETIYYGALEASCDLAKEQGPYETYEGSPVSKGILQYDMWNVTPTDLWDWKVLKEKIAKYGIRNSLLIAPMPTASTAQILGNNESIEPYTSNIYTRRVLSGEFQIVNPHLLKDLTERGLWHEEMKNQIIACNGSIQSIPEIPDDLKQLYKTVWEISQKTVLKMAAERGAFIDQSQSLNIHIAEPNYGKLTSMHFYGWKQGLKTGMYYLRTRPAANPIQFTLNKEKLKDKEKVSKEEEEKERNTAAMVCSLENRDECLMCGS


Molecular target: T1, RRM1 subunit of ribonucleotide reductase
Test: co-IP

| fold increase of RRM2B bound to RRM1 in <0.1% O2 against normoxia [fold] | fold decrease of RRM2 bound to RRM1 in <0.1% O2 against normoxia [fold] | Binder |
| --- | --- | --- |
| 5.3 | – | RRM2B subunit of ribonucleotide reductase (natural protein, human (endogenous in RKO), UniProt Q7LG56 1-351, looked up) MGDPERPEAAGLDQDERSSSDTNESEIKSNEEPLLRKSSRRFVIFPIQYPDIWKMYKQAQASFWTAEEVDLSKDLPHWNKLKADEKYFISHILAFFAASDGIVNENLVERFSQEVQVPEARCFYGFQILIENVHSEMYSLLIDTYIRDPKKREFLFNAIETMPYVKKKADWALRWIADRKSTFGERVVAFAAVEGVFFSGSFAAIFWLKKRGLMPGLTFSNELISRDEGLHCDFACLMFQYLVNKPSEERVREIIVDAVKIEQEFLTEALPVGLIGMNCILMKQYIEFVADRLLVELGFSKVFQAENPFDFMENISLEGKTNFFEKRVSEYQRFAVMAETTDNVFTLDADF |
| – | 1.8 | RRM2 subunit of ribonucleotide reductase (natural protein, human (endogenous in RKO), UniProt P31350 1-389, looked up) MLSLRVPLAPITDPQQLQLSPLKGLSLVDKENTPPALSGTRVLASKTARRIFQEPTEPKTKAAAPGVEDEPLLRENPRRFVIFPIEYHDIWQMYKKAEASFWTAEEVDLSKDIQHWESLKPEERYFISHVLAFFAASDGIVNENLVERFSQEVQITEARCFYGFQIAMENIHSEMYSLLIDTYIKDPKEREFLFNAIETMPCVKKKADWALRWIGDKEATYGERVVAFAAVEGIFFSGSFASIFWLKKRGLMPGLTFSNELISRDEGLHCDFACLMFKHLVHKPSEERVREIIINAVRIEQEFLTEALPVKLIGMNCTLMKQYIEFVADRLMLELGFSKVFRVENPFDFMENISLEGKTNFFEKRVGEYQRMGVMSSPTENSFTLDADF |
